This is an account of results in patent publication US20210332142A1 (Genentech, published 2021).

The target of one experiment is T1, omalizumab.
T1 construct: Used as irrelevant coated protein; also called irrelevant Fc-containing protein; not shown: the constant regions
Nature of the experiment: phage ELISA.

In experiment [1] the target is T2, recombinant human Tie2 extracellular domain (human, UniProt Q02763 23-748).
T2 construct: whole entry named; also called Recombinant human Tie2 ECD; hu Tie2
Nature of the experiment: SPR, IgG captured, 37C. As to the method: (§1) Antibodies were screened for binding to recombinant human and cyno Tie2 using a Biacore T200 instrument (GE Life Sciences). Briefly, a human antibody capture chip was generated using a Series S CM5 chip, a human antibody capture kit, and an amine coupling kit (GE Life Sciences). Antibodies diluted to 5 μg/ml were captured using a flow rate of 10 μl/minute and a contact time of 20 seconds. Binding of 300 nM and 1500 nM recombinant human and cyno Tie2 extracellular domain to the captured antibodies was analyzed at 37° C. using a single cycle kinetics method with a flow rate of 50 μl/minute, a contact time of 60 seconds and a dissociation time of 120 seconds. Between cycles, the chip was regenerated using 3M MgCl₂ injected for 30 seconds at 30 μl/minute. Data were evaluated using Biacore T200 Evaluation software (GE Life Sciences). Kinetic constants were obtained using a 1:1 binding model with the parameter RI set to zero. Selected antibodies (Table 7A-7B; ch denotes rabbit Abs; TEK denotes rat Abs) were taken forward for secondary activity screening in Fab-NDK format (see Example 8 below).
For orientation: SPR reads the build-up and loss of mass on a sensor chip optically.

Experiment [2] addresses T3, recombinant cyno Tie2 extracellular domain (cynomolgus monkey, UniProt Q02763 23-748 (human entry)).
T3 construct: also called Recombinant cyno Tie2 ECD; cy Tie2
T3 chain: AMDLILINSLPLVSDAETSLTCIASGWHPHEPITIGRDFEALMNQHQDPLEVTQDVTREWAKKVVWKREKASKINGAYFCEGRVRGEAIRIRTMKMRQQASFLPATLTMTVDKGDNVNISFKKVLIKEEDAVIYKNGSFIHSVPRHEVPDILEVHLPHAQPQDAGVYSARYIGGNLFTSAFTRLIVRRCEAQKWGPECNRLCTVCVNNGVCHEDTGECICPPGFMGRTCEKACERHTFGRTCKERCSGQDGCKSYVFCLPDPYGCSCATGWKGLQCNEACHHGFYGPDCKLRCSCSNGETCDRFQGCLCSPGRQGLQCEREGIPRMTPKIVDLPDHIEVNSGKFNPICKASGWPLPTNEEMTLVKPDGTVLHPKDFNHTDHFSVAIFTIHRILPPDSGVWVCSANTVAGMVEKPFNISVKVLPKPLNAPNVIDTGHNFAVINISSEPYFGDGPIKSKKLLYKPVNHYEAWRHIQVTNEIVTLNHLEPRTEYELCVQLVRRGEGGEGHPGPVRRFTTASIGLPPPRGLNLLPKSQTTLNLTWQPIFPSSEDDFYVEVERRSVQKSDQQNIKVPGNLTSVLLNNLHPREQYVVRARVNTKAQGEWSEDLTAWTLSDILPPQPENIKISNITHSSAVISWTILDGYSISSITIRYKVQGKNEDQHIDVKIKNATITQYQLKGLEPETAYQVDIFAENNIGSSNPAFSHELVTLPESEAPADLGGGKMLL
Nature of the experiment: SPR, IgG captured, 37C. As to the method: as §1

Experiment [3] has as its target T3, recombinant cyno Tie2 extracellular …. The experiment is described as follows: SPR, IgG captured, 37C. As to the method:
A human antibody capture chip was prepared using a Series S CM5 chip (GE Life Sciences), a human antibody capture kit (GE Life Sciences) and an amine coupling kit (GE Life Sciences). Antibodies diluted to 5 μg/ml in running buffer (10 mM HEPES, 150 mM NaCl, 0.05% Tween 20, 1 mM EDTA, pH 7.4) were non-covalently captured using a contact time of 20 seconds and a flow rate of 10 μl/minute. Binding to 300 nM and 1500 nM recombinant Tie2 was analyzed at 37° C. using a Single Cycle Kinetics method with a contact time of 60 seconds, a dissociation time of 120 seconds and a flow rate of 50 μl/min. Between cycles, the surface was regenerated by a 30 second injection of 3M MgCl₂ at a flow rate of 30 μl/min. Values for antibody capture levels and analyte binding levels were obtained from the Report Point Table (Biacore Evaluation Software v3.0, GE Life Sciences). […] Table 16: Experiment A; Table 17: Experiment B.

Experiment [4] has as its target T2, recombinant human Tie2 extracellular …. The experiment is described as follows: SPR multi-cycle kinetics, IgG captured, kinetic analysis. As to the method: Binding to 300 nM and 1500 nM recombinant Tie2 was analyzed at 37° C. using a Single Cycle Kinetics method with a contact time of 60 seconds, a dissociation time of 120 seconds and a flow rate of 50 μl/min. Between cycles, the surface was regenerated by a 30 second injection of 3M MgCl₂ at a flow rate of 30 μl/min. Values for antibody capture levels and analyte binding levels were obtained from the Report Point Table (Biacore Evaluation Software v3.0, GE Life Sciences). […] Table 16: Experiment A; Table 17: Experiment B.
(§2) Binding to recombinant human and cyno Tie2 was analyzed using a high performance multi-cycle kinetics format with a contact time of 60 seconds, a dissociation time of 60 seconds, a flow rate of 100 μl/minute and Tie2 concentrations of 5 μM, 2.5 μM, 1.25 μM, 625 nM, 313 nM and 156 nM. Tie2 concentrations of 5 μM, 2.5 μM and 1.25 μM were injected twice. Results were analyzed using Biacore T200 Evaluation Software v3.0 (GE Life Sciences). Results from all three surface densities were analyzed together using the 1:1 Binding model with multiple Rmax and the RI parameter set to zero.

Experiment [5] has as its target T3, recombinant cyno Tie2 extracellular …. The experiment is described as above. As to the method: as §2
Experiment [6] shares this target. The experiment is described as follows: SPR multi-cycle kinetics, IgG captured, kinetic analysis; cyno Tie2; kinetic analysis. As to the method: as §2
Experiment [7] concerns the target T2, recombinant human Tie2 extracellular …. Nature of the experiment: SPR multi-cycle kinetics, IgG captured, kinetic analysis; human Tie2; kinetic analysis. As to the method:
as §2

The target in the next experiment is T4, mouse Tie2 ECD5 (mouse, UniProt Q02858 23-442, limits assumed).
T4 construct: domain: ECD5 (Ig1, Ig2, EGF and Ig3 domains); also called mECD5
The experiment is described as follows: ELISA: mouse Tie2 ECD5 construct immobilized, serial dilutions of IgG, anti-huFc-HRP. From the text:
Plates were washed and detected with anti-huFC-conjugated HRP secondary antibody using the methods above.

B1: Tie2.1 (antibody, human IgG1, V domains shown)
VH: EVQLVESGGGLVQPGGSLRLSCAASGFTFSNTDISWVRQAPGKGLEWVGRISPSDGNTYYADSVKGRFTISADTSKNTAYLQMNSLRAEDTAVYYCARRTRWASWAMDYWGQGTLVTVSS
VL: DIQMTQSPSSLSASVGDRVTITCRASQDVSTAVAWYQQKPGKAPKLLIYSASFLYSGVPSRFSGSGSGTDFTLTISSLQPEDFATYYCQQSYTTPPTFGQGTKVEIKR
notes: human IgG1 in all later assays; also called Ab1; Tie2.1.M100c
Take B1: the binding result with omalizumab is “no binding”; with mouse Tie2 ECD5 it was “binds”. For the same molecule, the Kd (in general, the constant that tells how readily two partners part at equilibrium) in experiment [1] came to 3000 nM; in experiment [2], 4000 nM; in [6], 3000 nM; in experiment [7] it was 3000 nM. Moreover, the koff (usually the first-order rate constant of dissociation) in experiment [1] came to 0.3 s⁻¹; in experiment [2], 0.3 s⁻¹; in experiment [4], 0.45 s⁻¹; in experiment [5], 0.44 s⁻¹. Also, the kon (in general, the second-order rate constant of association) in experiment [1] came to 100000 M⁻¹ s⁻¹; in experiment [2], 90000 M⁻¹ s⁻¹; in experiment [4], 180000 M⁻¹ s⁻¹; in [5], 150000 M⁻¹ s⁻¹. In addition, the “Normalized Binding Signal, 300 nM” value in experiment [3] was 0.08.
